From patent US9289507B2, “Carriers for improved drug delivery” (Extend Biosciences, Inc., priority 2012, dated 2016)
Like-named read-outs stand apart in the source and are kept apart here.

B1: FGF21: Fibroblast growth factor 21 in its natural state (SEQ ID:2), literature values (protein, listed as Homo sapiens)
chain: HPIPDSSPLLQFGGQVRQRYLYTDDAQQTEAHLEIREDGTVGGAADQSPESLLQLKALKPGVIQILGVKTSRFLCQRPDGALYGSLHFDPEACSFRELLLEDGYNVYQSEAHGLPLHLPGNKSPHRDPAPRGPARFLPLPGLPPALPEPPGILAPQPPDVGSSDPLSMVGPSQGRSPSYAS

Assays:
[1] = set-up: species or system Sprague Dawley rats; details: rat, in vivo, sc, 1 mg/kg
Description: Infliximab, sold as a lyophilized powder with the appropriate salts (Hannah Pharmaceuticals), was resuspended to a concentration of 10 mg/mL with water. The Vitamin D3-PEG-NHS carrier was resuspended at a concentration of 10 mg/mL in DMSO. The Vitamin D3-PEG-NHS carrier and the infliximab were then mixed at a molar ratio of 5:1 and 10:1 carrier to infliximab. […] By using an NHS version of the carrier, more than one carrier can be attached to a therapeutic protein and this can be experimentally controlled by altering the molar ratio of carrier to target therapeutic in the reaction. In this example, a target distribution of 2-4 carriers was set as a desired parameter.
The dose was 1 mg/kg in all test groups with three rats per group. Serum samples were collected pre-dosing and at various times from 5 min to 48 hrs post injection. Serum samples were then analyzed by ELISA using an ELISA kit specific for determining the levels of infliximab in serum (Promonitor™, Progenika™). Pharmacokinetic parameters were determined using WinNonLin.

[2] = 1 mg/kg, cited from earlier work
[3] = FGF21 in its natural state; cited from earlier work

Row | Molecule | serum concentration at 24 hr [1] | serum concentration at 48 hr [1] | Cmax ([2]; intravenous route) | Cmax ([2]; subcutaneous route) | half-life in serum [3]
1 | infliximab: Monoclonal antibody that binds tumor necrosis factor alpha (TNF-α) [reference compound] | 2100 ng/mL | 4800 ng/mL | – | – | –
2 | B1 | – | – | 1890 nM | 73 nM | 1.1 h
